Residue numbers refer to the chain shown, from its start.
Columns and labels:
[1] = molecular target: T1, IFNAR2/Ig fusion protein (IFNAR2 extracellular domain fused to the hinge, CH2 and CH3 domains of human IgG1) (human, UniProt P48551 27-243); experiment: ELISA on captured IFNAR2-Fc; reference, value not given
T1 construct: extracellular domain; also called IFNAR2/Fc; IFNAR2-Fc; not shown: human IgG1 constant region: hinge, CH2 and CH3 domains
T1 sequence (looked up): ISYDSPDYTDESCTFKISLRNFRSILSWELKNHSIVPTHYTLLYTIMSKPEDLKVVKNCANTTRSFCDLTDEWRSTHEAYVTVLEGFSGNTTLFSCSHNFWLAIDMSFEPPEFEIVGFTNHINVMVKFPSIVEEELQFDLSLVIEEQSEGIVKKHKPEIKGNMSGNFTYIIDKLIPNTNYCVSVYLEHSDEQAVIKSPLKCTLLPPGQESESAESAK
Procedure: The receptor binding properties of the Interferon-beta mutants described in C were assessed using two different binding assays. One assay measured binding of the interferon-beta mutants to a fusion protein, IFNAR2/Ig, comprising the extracellular domain of the human IFNAR2 receptor chain fused to part of the constant region of a human IgG. IFNAR2-Fc was expressed in chinese hamster ovary (CHO) cells and purified by protein A sepharose affinity chromatography according to the instructions of the manufacturer (Pierce Chem. Co., Rockford, Ill., catalog #20334). The binding of interferon-beta mutants to IFNAR2-Fc was measured in an ELISA format assay. […] Binding of the interferon-beta mutants to IFNAR2-Fc was measured by adding 50 μl/well mutant interferon-beta in conditioned media, serially diluted in Dulbecco's Modified Eagle's Medium (DMEM) supplemented with 10% fetal bovine serum, and incubating for 2 hours at 4° C. […] After washing, interferon-beta bound to the plates was detected by adding 50 μl/well of a cocktail consisting of a 1:1000 dilution of a rabbit polyclonal anti-interferon antibody (#447) plus horseradish peroxidase (HRP)-labelled donkey anti-rabbit IgG (Jackson ImmunoResearch), and incubating for 15 minutes at 4° C. After two washes, HRP substrate was added, and the plate was incubated at 4° C. before being read on an ELISA plate reader at an absorbance of 450 nm. […]

[2] = molecular target: T1, IFNAR2/Ig fusion protein (IFNAR2 …); experiment: ELISA; IFNAR2-Fc captured on anti-human IgG1 plate; mutant in conditioned medium
Procedure: (§1) The receptor binding properties of the Interferon-beta mutants described in C were assessed using two different binding assays. One assay measured binding of the interferon-beta mutants to a fusion protein, IFNAR2/Ig, comprising the extracellular domain of the human IFNAR2 receptor chain fused to part of the constant region of a human IgG. IFNAR2-Fc was expressed in chinese hamster ovary (CHO) cells and purified by protein A sepharose affinity chromatography according to the instructions of the manufacturer (Pierce Chem. Co., Rockford, Ill., catalog #20334). The binding of interferon-beta mutants to IFNAR2-Fc was measured in an ELISA format assay. ELISA plates were prepared by coating flat-bottomed 96 well plates overnight at 4° C. with 50 μl/well of mouse anti-human IgG1 monoclonal antibody (CDG5-AA9, Biogen, Inc.) at 10 μg/ml in coating buffer (50 mM NaHCO₃, 0.2 mM MgCl₂, 0.2 mM CaCl₂, pH 9.6). Plates were washed twice with PBS containing 0.05% Tween-20, and blocked with 0.5% non-fat dry milk in PBS for 1 hour at room temperature. After two more washes, 50 μl of 1 μg/ml IFNAR2-Fc in 0.5% milk in PBS containing 0.05% Tween-20 was added to each well and incubated for 1 hour at room temperature, and the plates were then washed twice more. Binding of the interferon-beta mutants to IFNAR2-Fc was measured by adding 50 μl/well mutant interferon-beta in conditioned media, serially diluted in Dulbecco's Modified Eagle's Medium (DMEM) supplemented with 10% fetal bovine serum, and incubating for 2 hours at 4° C. Dilutions of interferon-beta mutant typically ranged from approximately 1 μM down to 10 pM. After washing, interferon-beta bound to the plates was detected by adding 50 μl/well of a cocktail consisting of a 1:1000 dilution of a rabbit polyclonal anti-interferon antibody (#447) plus horseradish peroxidase (HRP)-labelled donkey anti-rabbit IgG (Jackson ImmunoResearch), and incubating for 15 minutes at 4° C. After two washes, HRP substrate was added, and the plate was incubated at 4° C. before being read on an ELISA plate reader at an absorbance of 450 nm. Data were plotted as absorbance versus the concentration of mutant interferon-beta, and the affinity for the binding of the mutant interferon-beta to IFNAR2-Fc was determined by fitting the data to a simple hyperbolic binding equation.

[3] = molecular target: T1, IFNAR2/Ig fusion protein (IFNAR2 …); experiment: ELISA on captured IFNAR2-Fc
Procedure: as §1

B1: his tagged-wild-type interferon-beta-1a (ligand)
chain: SGGHHHHHHSSGDDDDKMSYNLLGFLQRSSNFQCQKLLWQLNGRLEYCLKDRMNFDIPEEIKQLQQFQKEDAALTIYEMLQNIFAIFRQDSSSTGWNETIVENLLANVYHQINHLKTVLEEKLEKEDFTRGKLMSSLHLKRYYGRILHYLKAKEYSHCAWTIVRVEILRNFYFINRLTGYLRN
notes: Expressed in human EBNA 293 cells and tested as conditioned medium; also called wild type his-IFN-beta; w.t. his-IFN-beta
binding result [1]: binds

B2: his tagged-interferon-beta alanine substitution mutant AB1 (ligand)
chain: B1 chain with L45A, E46A, Y47A, L49A, K50A
notes: Tested as EBNA 293 conditioned medium
binding result [2]: no binding
EC50 relative to w.t. his-IFN-beta EC50 [3]: > 500 fold of w.t. his-IFN-beta EC50

B3: his tagged-interferon-beta alanine substitution mutant E (ligand)
chain: B1 chain with V165A, R169A, Y172A, N175A
notes: also called E helix mutant
binding result [2]: no binding
EC50 relative to w.t. his-IFN-beta EC50 [3]: > 500 fold of w.t. his-IFN-beta EC50

B4: his tagged-interferon-beta alanine substitution mutant A2 (ligand)
chain: B1 chain with F32A, Q33A, Q35A, K36A, W39A, Q40A
notes: Tested as EBNA 293 conditioned medium; also called A2 helix mutant
binding result [2]: no binding
EC50 relative to w.t. his-IFN-beta EC50 [3]: > 500 fold of w.t. his-IFN-beta EC50

B5: his tagged-interferon-beta alanine substitution mutant AB2 (ligand)
chain: B1 chain with M53A, N54A, D56A, E59A
notes: as for B2
binding result [2]: no binding
EC50 relative to w.t. his-IFN-beta EC50 [3]: > 500 fold of w.t. his-IFN-beta EC50

Reference: US20030021765A1 (Biogen, published 2003)
